B1: HIS-MBP-DAR1 (natural protein, Arabidopsis thaliana, UniProt Q8W4F0 1-553, looked up)
chain: MGWLTKILKGSSHKFSDGQCNGRYREDRNLEGPRYSAEGSDFDKEEIECAIALSLSEQEHVIPQDDKGKKIIEYKSETEEDDDDDEDEDEEYMRAQLEAAEEEERRVAQAQIEEEEKRRAEAQLEETEKLLAKARLEEEEMRRSKAQLEEDELLAKALQESMNVGSPPRYDPGNILQPYPFLIPSSHRICVGCQAEIGHGRFLSCMGGVWHPECFCCNACDKPIIDYEFSMSGNRPYHKLCYKEQHHPKCDVCHNFIPTNPAGLIEYRAHPFWMQKYCPSHERDGTPRCCSCERMEPKDTKYLILDDGRKLCLECLDSAIMDTHECQPLYLEIREFYEGLHMKVEQQIPMLLVERSALNEAMEGEKHGHHHLPETRGLCLSEEQTVTTVLRRPRIGAGYKLIDMITEPCRLIRRCEVTAILILYGLPRLLTGSILAHEMMHAWLRLNGYPNLRPEVEEGICQVLAHMWLESETYAGSTLVDIASSSSSAVVSASSKKGERSDFEKKLGEFFKHQIESDSSSAYGDGFRQGNQAVLKHGLRRTLDHIRLTGTFP
notes: DAR1, Arabidopsis thaliana, AT4G36860; source: E. coli BL21 (DE3), purified (NI-NTA agarose beads)
B2: HIS-MBP-DA1 (natural protein, Arabidopsis thaliana, UniProt P0C7Q8 1-532, looked up)
chain: MGWFNKIFKGSNQRLRVGNNKHNHNVYYDNYPTASHDDEPSAADTDADNDEPHHTQEPSTSEDNTSNDQENEDIDRAIALSLLEENQEQTSISGKYSMPVDEDEQLARALQESMVVGNSPRHKSGSTYDNGNAYGAGDLYGNGHMYGGGNVYANGDIYYPRPITFQMDFRICAGCNMEIGHGRFLNCLNSLWHPECFRCYGCSQPISEYEFSTSGNYPFHKACYRERYHPKCDVCSHFIPTNHAGLIEYRAHPFWVQKYCPSHEHDATPRCCSCERMEPRNTRYVELNDGRKLCLECLDSAVMDTMQCQPLYLQIQNFYEGLNMKVEQEVPLLLVERQALNEAREGEKNGHYHMPETRGLCLSEEQTVSTVRKRSKHGTGKWAGNITEPYKLTRQCEVTAILILFGLPRLLTGSILAHEMMHAWMRLKGFRTLSQDVEEGICQVMAHKWLDAELAAGSTNSNAASSSSSSQGLKKGPRSQYERKLGEFFKHQIESDASPVYGDGFRAGRLAVHKYGLRKTLEHIQMTGRFPV
notes: DA1, Arabidopsis thaliana, AT1G19270; source: E. coli BL21 (DE3), purified (NI-NTA agarose beads)
B3: HIS-MBP-DAR2 (natural protein, Arabidopsis thaliana, UniProt Q0WSN2 1-528, looked up)
chain: MDSSSSSSSSSPSSSYGVARVSHISNPCIFGEVGSSSSSTYRDKKWKLMKWVSKLFKSGSNGGGSGAHTNHHPPQFQEDENMVFPLPPSSLDDRSRGARDKEELDRSISLSLADNTKRPHGYGWSMDNNRDFPRPFHGGLNPSSFIPPYEPSYQYRRRQRICGGCNSDIGSGNYLGCMGTFFHPECFRCHSCGYAITEHEFSLSGTKPYHKLCFKELTHPKCEVCHHFIPTNDAGLIEYRCHPFWNQKYCPSHEYDKTARCCSCERLESWDVRYYTLEDGRSLCLECMETAITDTGECQPLYHAIRDYYEGMYMKLDQQIPMLLVQREALNDAIVGEKNGYHHMPETRGLCLSEEQTVTSVLRRPRLGAHRLVGMRTQPQRLTRKCEVTAILVLYGLPRLLTGAILAHELMHGWLRLNGFRNLNPEVEEGICQVLSYMWLESEVLSDPSTRNLPSTSSVATSSSSSFSNKKGGKSNVEKKLGEFFKHQIAHDASPAYGGGFRAANAAACKYGLRRTLDHIRLTGTFPL
notes: DAR2, Arabidopsis thaliana, AT2G39830; source: E. coli BL21 (DE3), purified (NI-NTA agarose beads)

Each binder was assayed against T1, GST-UBP13 (Arabidopsis thaliana, UniProt Q84WU2 1-1115) (assay: pull-down; in vitro; equal amounts of free GST, GST-UBP12 or GST-UBP13 as baits incubated with HIS-MBP-DA1, -DAR1 or -DAR2; purification with anti-GST beads; Western blot). Conditions: both partners purified.
T1 construct: UBP13, Arabidopsis thaliana, AT3G11910; called full-length; also called full-length GST-UBP13; source: E. coli BL21 (DE3), purified (Glutathione Sepharose 4B beads)
T1 sequence (looked up): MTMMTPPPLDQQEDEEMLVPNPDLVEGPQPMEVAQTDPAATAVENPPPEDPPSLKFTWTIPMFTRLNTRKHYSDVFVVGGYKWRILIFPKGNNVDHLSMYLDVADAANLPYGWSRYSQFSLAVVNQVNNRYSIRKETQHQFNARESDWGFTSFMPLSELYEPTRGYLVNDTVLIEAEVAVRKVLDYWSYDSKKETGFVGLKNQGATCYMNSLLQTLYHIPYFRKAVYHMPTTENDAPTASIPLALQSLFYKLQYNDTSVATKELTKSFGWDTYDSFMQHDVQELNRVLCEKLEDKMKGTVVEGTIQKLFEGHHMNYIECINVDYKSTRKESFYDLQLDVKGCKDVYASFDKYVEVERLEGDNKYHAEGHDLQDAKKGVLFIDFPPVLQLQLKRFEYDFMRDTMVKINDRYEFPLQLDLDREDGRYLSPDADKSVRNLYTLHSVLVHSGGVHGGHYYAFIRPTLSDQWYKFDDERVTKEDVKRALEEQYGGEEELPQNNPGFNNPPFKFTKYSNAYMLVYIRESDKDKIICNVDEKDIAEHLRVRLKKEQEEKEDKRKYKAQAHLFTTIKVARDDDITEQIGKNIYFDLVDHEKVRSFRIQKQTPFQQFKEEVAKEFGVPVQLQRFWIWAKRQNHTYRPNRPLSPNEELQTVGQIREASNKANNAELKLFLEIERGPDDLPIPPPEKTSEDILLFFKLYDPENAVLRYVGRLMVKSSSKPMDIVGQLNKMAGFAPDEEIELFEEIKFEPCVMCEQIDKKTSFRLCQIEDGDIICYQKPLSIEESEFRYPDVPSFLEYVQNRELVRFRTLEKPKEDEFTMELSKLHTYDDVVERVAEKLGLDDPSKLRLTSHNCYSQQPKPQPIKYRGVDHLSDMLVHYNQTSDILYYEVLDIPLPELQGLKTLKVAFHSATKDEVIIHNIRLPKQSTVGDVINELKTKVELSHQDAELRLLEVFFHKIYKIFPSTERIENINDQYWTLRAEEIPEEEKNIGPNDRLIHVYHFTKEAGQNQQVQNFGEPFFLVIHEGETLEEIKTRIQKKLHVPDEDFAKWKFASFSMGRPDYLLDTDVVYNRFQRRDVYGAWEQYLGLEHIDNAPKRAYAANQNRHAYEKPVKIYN
B1: binds.
B2: binds.
B3: binds.

The binders below were run against T2, GST-UBP12 (Arabidopsis thaliana, UniProt Q9FPT1 1-1116) in the same assay as above. Conditions: both partners purified.
T2 construct: UBP12, Arabidopsis thaliana, AT5G06600; called full-length; also called full-length GST-UBP12; source: E. coli BL21 (DE3), purified (Glutathione Sepharose 4B beads)
T2 sequence (looked up): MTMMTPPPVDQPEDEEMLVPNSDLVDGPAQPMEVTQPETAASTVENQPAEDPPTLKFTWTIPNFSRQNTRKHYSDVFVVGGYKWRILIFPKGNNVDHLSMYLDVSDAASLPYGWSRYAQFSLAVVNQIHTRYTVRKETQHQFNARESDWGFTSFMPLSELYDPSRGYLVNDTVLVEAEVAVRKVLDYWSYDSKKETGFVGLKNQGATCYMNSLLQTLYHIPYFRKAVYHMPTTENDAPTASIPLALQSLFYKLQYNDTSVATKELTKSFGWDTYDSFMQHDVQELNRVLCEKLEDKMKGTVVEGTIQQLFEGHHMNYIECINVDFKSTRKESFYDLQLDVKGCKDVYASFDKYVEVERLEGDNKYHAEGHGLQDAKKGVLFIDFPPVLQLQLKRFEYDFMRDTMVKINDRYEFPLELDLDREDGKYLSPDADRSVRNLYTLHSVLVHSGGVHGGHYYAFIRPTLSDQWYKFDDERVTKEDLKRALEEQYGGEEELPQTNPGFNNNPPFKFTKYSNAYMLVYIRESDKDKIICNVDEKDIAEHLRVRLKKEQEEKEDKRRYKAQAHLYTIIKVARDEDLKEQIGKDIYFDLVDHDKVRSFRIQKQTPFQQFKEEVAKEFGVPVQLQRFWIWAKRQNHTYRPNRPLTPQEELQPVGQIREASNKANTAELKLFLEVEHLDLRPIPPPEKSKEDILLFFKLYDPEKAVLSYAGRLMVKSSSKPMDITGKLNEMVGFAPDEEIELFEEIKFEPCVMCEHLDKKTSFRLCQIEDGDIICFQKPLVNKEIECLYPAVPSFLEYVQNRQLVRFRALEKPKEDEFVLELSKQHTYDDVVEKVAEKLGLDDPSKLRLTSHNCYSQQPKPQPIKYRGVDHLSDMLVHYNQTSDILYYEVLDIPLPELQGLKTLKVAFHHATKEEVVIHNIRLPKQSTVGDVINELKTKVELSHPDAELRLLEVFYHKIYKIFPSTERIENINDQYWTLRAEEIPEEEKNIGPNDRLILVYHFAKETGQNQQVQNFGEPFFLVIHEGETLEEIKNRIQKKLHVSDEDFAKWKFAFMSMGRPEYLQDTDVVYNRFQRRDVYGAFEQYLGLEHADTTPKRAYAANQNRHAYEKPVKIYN
B1: binds.
B2: binds.
B3: binds.
